Substitutions are numbered along the chain they refer to. Names may count otherwise. One block for each binder: values may come before it.
Legend:
[1] = target: extracellular domain of CD47 fused to a His(×6)-Avi-tag; experiment: ELISA; conditions: chain shown with the change, read off a plot
[2] = target: extracellular domain of CD47 fused to a His(×6)-Avi-tag (human); experiment: ELISA; CD47-ECD coated on plates; serially diluted IgGs, detected with anti-human IgG Fc-HRP; pH 6.8 (of a series from pH 6.2 to 7.6)
[3] = target: extracellular domain of CD47 fused to a His(×6)-Avi-tag (human); experiment: ELISA; CD47-ECD coated on plates; serially diluted IgGs, detected with anti-human IgG Fc-HRP; pH 7.6 (of a series from pH 6.2 to 7.6)

extracellular domain of CD47 fused to a His(×6)-Avi-tag, sequence (chain, as listed by the source): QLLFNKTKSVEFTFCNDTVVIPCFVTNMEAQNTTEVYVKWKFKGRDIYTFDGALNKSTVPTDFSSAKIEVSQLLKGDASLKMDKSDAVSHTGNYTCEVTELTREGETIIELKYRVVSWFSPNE

B3: BC31M4 (hIgG1 form) L:H38R; L:H55R (protein)
chain 1: QVQLVQSGAEVKKPGASVKVSCKASGYTFTSYGISWVRQAPGQGLEWMGWISAYNGNTNYAQKLQGRVTMTTDTSTSTAYMELRSLRSDDTAVYYCARGAVYFDYWGQGTLVTVSS
chain 2: EIVLTQSPATLSLSPGERATLSCRASQSLSRNRLAWYQQKPGQPPRLLIRWASTRESGVPDRFSGSGSGTDFTLTISSLQAEDVAVYYCQQHTQNTWTFGQGTKVEIK
EC50 ([1]; pH 6.8, parent: est. -1.3): -0.9 log10(nM)
EC50 ([1]; pH 7.4, parent: est. -0.1): -0.1 log10(nM)

B5: BC31M4 (hIgG1 form) (antibody, V domains shown)
VH: B3 chain 1
VL: B3 chain 2 with R33H, R50H
EC50 [2]: 0.03 nM
EC50 [3]: 2.12 nM

Results, then the binder that gave them:

EC50 ([1]; pH 6.8, parent: est. -1.3): 1.4 log10(nM)
EC50 ([1]; pH 7.4, parent: est. -0.1): 1.9 log10(nM)
B1: BC31M4 (hIgG1 form) L:H38R; L:H107R (protein)
chain 1: B3 chain 1
chain 2: B3 chain 2 with R50H, H92R

EC50 ([1]; pH 6.8, parent: est. -1.3): 0.4 log10(nM)
EC50 ([1]; pH 7.4, parent: est. -0.1): 1.3 log10(nM)
B2: BC31M4 (hIgG1 form) L:H55R; L:H107R (protein)
chain 1: B3 chain 1
chain 2: B3 chain 2 with R33H, H92R

response ([1]; pH 6.8, highest antibody concentration, Log[Ab] (nM) about 3.5): 2 OD450
B4: BC31M4 (hIgG1 form) L:H38R; L:H55R; L:H107R (protein)
chain 1: B3 chain 1
chain 2: B3 chain 2 with H92R
